Measured values reported in the DeepSol protein solubility set.

Test: soluble on expression in E. coli; label from the status in PepcDB or PDB records

Sequence | soluble on expression in E. coli
MGSDKIHHHHHHMKVKIGDLTKIKTGKLDANVSSEDGKYPFFTCSKEPLKISTYSYDCECVLVAGNGDLNVKYYNGKFDAYQRTYIIEANGSGKLYMPYLYYFMEDYIDELRKQAIGGVIKYIKLANLTDALIELPSVDEQKSIVEILKKVKGILDKRNDEIRELDNLIKARFVEMFGDPRSNPFGFEKKRLKDTCKVITGNTPSRAIEEYYGDYIEWIKTDNIVSGILNPTQATESLSEKGMNVGRTVEKDSILMACIAGSIASIGRVCITDRTVAFNQQINAVVPEQYNILFLYVLFQMSKDYLVEDINMALKGILSKSKLEEKEFIIPPMDLQEQFSDFVKQVDKSKFDTMTFAPIYAIINLYLHTYFYQGRR | not soluble
MSLNKTNYNNIISINQQREFVLFQNIQKECPLLVVFDLDDTLIHTHINTNNLCINSSDIFTIRVNEIKYYCEVRKGVVETLERLSKQFRIMIYTASKKEYADQVVSHLEKNCKLFSKILYREDCLEEEGFIYKTIHNINYNVKRIICIDDNPSAWKKLENVYVCKKYNGGIDDEMIDIEKTFIKCCILCFLFVEGHHHHHH | soluble
MGSDKIHHHHHHMKMNWTGAAHQLNKQGKAYVIATIVGVTGSTPRNSGTKMVITHDDIFDTIGGGHLEHKVIKHAHQLLMAGDDCQQLEHFQLGAQLGQCCGGNASVLFESFSASGVNIMLFGAGHVGKALMPILAGLPCSITWVDSRADQFPDDAGNYHNVTTLVSENPAEEVALMPTNSYYIVMTHNHQLDFEISHNTLKRADFAYLGLIASDTKWRRFQQRFQHRDIAKSLVEKMNCPIGLPQVQGKLPMEVAVSVAGEIIQLYQAELASQALANPSANKQKDAKPQSTKQGIAWQELKSLMTEEVS | not soluble
MGSDKIHHHHHHMESIVSWPKPRGLARHSGRKAMSSLSSLARIALSLSLPSGLLDRGPSLRGTKFLAKAALKARFGGASQPFQMVNVGACDGALFDDVTPWLHRIAGARAMLVEPIPYNQKRLRANYPDKERFIIEPVAVTKTKGTITVHTFDAAALEAGTLPIEFIGCSSVTDTNLMSGKNAWGEADANFNKFAPHLRDIEVPSETLQTLLDRNGISHIDAFLVDCEGADWMVFEQLDLKRYRPGLIKVEVGALPATEIGQVVVKLKTAGYQVGFQAEDVWAFA | not soluble
MGSDKIHHHHHHMKLLYFKEHLSCINYQINVNTGFVYYNLEKDSVSKIDNSASPCILFLLDGEVSIDSGEYQNVHIEKDKMVLIPQHVDNKIEVIYDAKCLLLFWNKDIRVCDKVYMNSLSSYKERKKEMCVLPIRDPLQAVLNSVVAYLYAKMQCKHMHLIKQQEVLLVLRGYYTKKELFTFFSSILGNTGHFEDFVMNNYRKVKSVKEFAGLYCTSERSFNRKFQNCFKESPYQWMQKKKAELIREKISESDTPFQEIAMDFDFNSQAHFTSYCKRLFGMTPSKLRTESKKVAPDLEY | not soluble
MPKIKRVKKGKKLKPNVMIFCEGETEEAYLRLIKRKYSAVNIKSKLKVKTCRRQGEALVEYAVSCIRSMGKAERDNYDLFYVMYDKDEQTTESIENAVRCAQRHRPEIKTIFSNECFELWLLLHFEEVNRYMTRENLYGRLEKVLHLKDSYRNFKGAEVCKYLEEKVAIAFQNTNKNWLSPLEEMKINENPYTNFPKELCEMLAQKEVDF | not soluble
MGSDKIHHHHHHMLNQVYRLVSPRQFEVETVAEEVDADDLIVRPKFLSICHADTRYFFGQRSQAALRAKLPMALIHEAVGEVVYDPRNEYKPGTLVAMVPNTPVKKDSIIQENYLPSSRFRSSGYDGFMQEYVCLRRDRAITVPSDFDPHMAAFIEMVSVGVQALTKLESTMDEDQRVIGIWGDGNLGYITATLVKQIFPDSQLLVFGRHQSKLDYFSFADKTYLVDDIPADVKVSQALECTGGQGSEAAIQQIIQHIQPMGTAILMGVSENPVGIDTRSVLAEGLTLRGVSRSSREDFKRAVDILSSSPVTRERLQNLVGYVQKVSSIQDITNFFDSALTNYWGKEVMEWDV | not soluble
MGSDKIHHHHHHMLRRYRKLGEILLEKGFITREELDKALEIQKEERKPLGEVLIETGYITEDQLLEALSEQYGVPILKELPKNIPLNVVGSIPKNIIESLHVIPVEKKEDGTLVVVTDNGTNIPRIKQEIRFLTGKNPEIYLVTSRDFSVLYQTYVLGVPLELFEEPYVAIEETPEQVEEEEEEEREVEEAPIVRLVNNIVNRAIEMGASDIHIEPMKRTVRVRFRIDGILRKVLEYQKPQHNSVVARIKIMSGLDVSERRLPQDGKFYTIKGGEQYDFRVSTMPSTFGEKVVMRILKVSDANKRLEELGYSEYNLKRILSLLEKPYGIILVTGPTGSGKSTTLVAMINYLKSESVNIVTAEDPVEYTIEGVTQCQVFPEIGLTFARYLRAFLRQDPDIIMVGEIRDRETAQLAVEASLTGHLVLSTLHTNTAAGAVSRLIEMGIDPHLLGASLIGIIGQRLVRKLCDECKMPGEVRDEQVKSYFEQFFGKVPDQIYYPSEEGCPACKGMRYRGRMAIGEVLIVDEELRELISSKASETEIAKLAVKKGMRTMFQDALEKVLLGQTSIEEVFRVTTPL | not soluble
MTSSNEKLPKINHDNEVFALLYKILSSEVQTIKGEDNEKVNQLRVDITISEISQLTDKMKKAFLEQPALLEISNEPITVVADMHGQSIHLLRIFLTNEAPPNQKYLFLGDYVDRGSQSVVVMCLLFCMKHRYPQHVFLLRGNHEDVNTTLNYGFYDECLEQWKNDEGEKVWRMFIDTFNCMPLAAVIGGKVFCAHGGISPWLESLEDINSIERPLVVPPYGLACDLLWSDPAQPERNGWGLSHRGISFTYGKSVVEEFCAKNDIALVIRGHQLFKEMYPQGCVLRFGGRLISLFSALNYEGHKNNSSVLKLEFVGQRVKVKQVLYRCRHYAPLRSNEYLGFRDMKSSSGKNEKRKKGRLESLLG | not soluble
MNVIEGVVATPNARVAIAIARFNNFINDSLLDGAIDALKRIGQVSDDNITVVWVPGAYELPLVANVLAKTNRYDAVIALGTVIRGGTAHFEYVAGEASSGLSSVAMNSDIPVAFGVLTTESIEQAIERAGTKAGNKGAEAALTALEMINVIKAIKG | not soluble
MKEQNESFVVDFVGGAVGHRFRSGEGRGQALPKAAGFTKGRTPKIVDATAGLGRDAFLLASLGAEVTLIERSPGMHAHLADGISRALEAGGAYAEAASRMTLLQGDSRQLLKELSPEVVVIDPMHPPRHNTALVKKEMRVLRELVGSDPDQVELMEVALAHATKRVVLKWPLRADPMPGIRKPSHQIIGKNTRYDVFMIFGNSLDQQELEHHHHHH | soluble
MASGQDKTHIDYAYELDITVKPDSRVPVFNREFATFTGAGVPLFSLGGGPIRYALAEVLAKFHARRGYYVVETPIIASTELFKVSGHIEFYRNNMYLFDIEGHEFAVKPMNCPYHILLFLNEVAKHRSKLPLPFKVFEFGRVHRYEPSGSIYGLLRVRGFTQDDAHIIVPGGRVIDVVYDVFEEMKLVLERLFKLGVSSETFKVRLSMSDKSLIGKEFMGSKEEWEGAEEALREAASRINEKYGIDIVELEGEAAFYGPKLDFIMMVEESGVSKEWQMGTIQFDFNLPRRFRLYDVVREEFGIEEVYIIHRALLGSIERFLGVYLEHRRGRMPFTLAPIQFAVIAVKTGGEVDREIEDLASSIAKGLLDKGFRVAVKGSSKTGLSSDVRHIESTAKPAVNVFIGAKEVREKVLDVRVFDLESMKRRRLAIAYGDAADAVENLAAVAEELESPVRSLSGQAPRIPADFSFML | soluble
SIERLGYLGFAVKDVPAWDHFLTKSVGLMAAGSAGDAALYRADQRAWRIAVQPGELDDLAYAGLEVDDAAALERMADKLRQAGVAFTRGDEALMQQRKVMGLLCLQDPFGLPLEIYYGPAEIFHEPFLPSAPVSGFVTGDQGIGAFVRCVPDTAKAMAFYTEVLGFVLSDIIDIQMGPETSVPAHFLHCNGRHHTIALAAFPIPKRIHHFMLQANTIDDVGYAFDRLDAAGRITSLLGRHTNDQTLSFYADTPSPMIEVEFGWGPRTVDSSWTVARHSRTAMWGHKSVRGQR | soluble
MSLPIDEHVNAVKTVVVPAAGLGTRFLPATKTVPKELLPVVDTPGIELIAAEAAELGATRLAIITAPNKAGVLAHFERSSELEETLMERGKTDQVEIIRRAADLIKAVPVTQDKPLGLGHAVGLAESVLDDDEDVVAVMLPDDLVLPTGVMERMAQVRAEFGGSVLCAVEVSEADVSKYGIFEIEADTKDSDVKKVKGMVEKPAIEDAPSRLAATGRYLLDRKIFDALRRITPGAGGELQLTDAIDLLIDEGHPVHIVIHQGKRHDLGNPGGYIPACVDFGLSHPVYGAQLKDAIKQILAEHEAAERIADDSQVKLEHHHHHH | soluble
